1 substance from PMC3865217 can be followed below.

Holding throughout (test): SPR
Common to all, as to details: EMSA: 5 mM Hepes pH 7.5, 0.05 mM EDTA, 0.014% Nonidet P40, 5% glycerol, 30 min, 23 C; SPR: 5 mM Hepes pH 7.5, 5 mM phosphate pH 7.5, 0.05 mM EDTA …

Series [1] concerns Yap8bZIP (Saccharomyces cerevisiae).
The test system of series [2] is Yap8bZIPLNNR (Saccharomyces cerevisiae).
Series [3] concerns Yap8bZIPL26A (Saccharomyces cerevisiae).

As to Y8RE 25-bp SPR oligomer, the Kd – broadly, a measure of binding affinity in units of concentration – in series [1] was found to be 6.1 nM; in series [2] it was 6.5 nM; in series [3] it was 17.2 nM.
